Measured values: paper PMC2581630, “S-Nitrosylation of Surfactant Protein-D Controls Inflammatory Function” (PLoS Biology, 2008)

B1: rat recombinant SP-D (surfactant protein D) (natural protein, UniProt P35248 20-374, looked up)
chain: AEMKTLSQRSITNTCTLVLCSPTENGLPGRDGRDGREGPRGEKGDPGLPGPMGLSGLPGPRGPVGPKGENGSAGEPGPKGERGLVGPPGSPGISGPAGKEGPSGKQGNIGPQGKPGPKGEAGPKGEVGAPGMQGSAGAKGPAGPKGERGAPGEQGAPGNAGAAGPAGPAGPQGAPGSRGPPGLKGDRGAPGDRGIKGESGLPDSAALRQQMEALNGKLQRLEAAFSRYKKAALFPDGQSVGDKIFRAANSEEPFEDAKEMCRQAGGQLASPRSATENAAVQQLVTAHSKAAFLSMTDVGTEGKFTYPTGEALVYSNWAPGEPNNNGGAENCVEIFTNGQWNDKACGEQRLVICEF
notes: surfactant protein D (SP-D), rat, recombinant; It has the N-terminal cysteines 15 and 20 and the head domain, so it is probably the whole mature chain; also called rSP-D; RrSP-D; source: recombinant

Tests used:
[1] = biological target: SNO-SP-D in BAL from mice overexpressing SP-D, after treatment with S-nitrosocysteine (not stated (in BAL of SP-D overexpressing mice)) (UniProt P50404); assay: SEC; BAL from SP-D overexpressing mice with or without SNOC, 0.75 mg total protein in 250 μl; Superdex 200 HR 10/30, 0.3 ml/min, 25 mM HEPES pH 7.25, 150 mM NaCl; fractions analysed by SDS-PAGE and Western blot for SP-D
[2] = biological target: the molecule itself; assay: non-reducing SDS-PAGE with Western blot; recombinant proteins denatured without thiol reductant, SDS-PAGE, Western blot with SP-D antibody; shows only oligomers that survive SDS (disulfide-linked)

Row | Molecule | stoichiometry N [1] | stoichiometry N [2]
1 | SNO-SP-D in BAL from mice overexpressing SP-D, after treatment with S-nitrosocysteine (from UniProt P50404 20-374) (natural protein) | 3 | –
2 | B1 | – | 3
